Experimental data taken from the supplement of paper PMC10126150.
± gives the standard deviation of the averaged measurements.

System: ATP
Assay: switch fluorescence ratio, 500 uM ATP over buffer (Cy3 cluster intensity, sum of 5 cycles each) (fold (ratio)); higher = stronger signal-on switching upon ATP binding; sequences stand for … in TCGTCGGCAGCGTCAGATGTGTATAAGAGACAGTTTTTTTTTTTTTTTTTTTTTTTTT…TC
Conditions: aptamer strand: ATP DNA aptamer (quencher-CACCTGGGGGAGTATTGCGGAGGAAGG + anchor), 100 nM annealed; ATP concentration: 500 uM
In short: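 Imaging in selection buffer was followed by imaging after 15 min with 500 uM ATP at 22 °C, for Cy3-labelled switching-strand clusters annealed to 100 nM quencher-labelled ATP aptamer on a modified Illumina MiSeq flow-cell. Five of these buffer/ATP cycles ran, separated by NaOH stripping and re-annealing. The fluorescence ratio per cluster is summed target-cycle over summed buffer-cycle Cy3 intensity, averaged per switch-domain sequence; clusters outside 100-1000 RFU were removed.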
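Also: ATP exposure 15 min at 22 °C before imaging.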

| Sequence | switch fluorescence ratio |
| --- | --- |
| CGTTTTGTGA | 1 ± 0.0054 |
| CGTTTTTAGT | 1.002 ± 0.0072 |
| CGTTTTTGCC | 1.0037 ± 0.00025 |
| CTAAAAACGG | 1.002 ± 0.01 |
| CTAAAATGAA | 1.03 ± 0.018 |
| CTAAACCTGG | 1.13 ± 0.034 |
| CTAAAGGTTT | 1.004 ± 0.003 |
| CTAAATAGAA | 0.983 ± 0.074 |
| CTAAATAGCA | 1.01 ± 0.016 |
| CTAAATCGGC | 1.03 ± 0.035 |
| CTAAATGAGC | 0.979 ± 0.02 |
| CTAAATTTC | 1.02 ± 0.08 |
| CTAACGCCTT | 1.13 ± 0.042 |
| CTAACGTGAG | 1.02 ± 0.034 |
| CTAACTTGCG | 0.995 ± 0.014 |
| CTAAGCAGGG | 1.01 ± 0.016 |
| CTAAGGTAAG | 0.981 ± 0.049 |
| CTAATACTAG | 0.982 ± 0.047 |
| CTAATGAGGG | 1.02 ± 0.036 |
| CTAATGCGGA | 1.01 ± 0.019 |
| CTAATGGAGG | 1.01 ± 0.011 |
| CTAATGGGTG | 1.02 ± 0.02 |
| CTAATTGCAA | 1.05 ± 0.066 |
| CTAATTGGCG | 1.02 ± 0.04 |
| CTAATTTCGT | 0.992 ± 0.014 |

| Sequence | switch fluorescence ratio |
| --- | --- |
| CTAATTTTGT | 0.995 ± 0.014 |
| CTACGGCATA | 3.11 ± 0.11 |
| CTACGGGGTG | 1.01 ± 0.046 |
| CTACTAGAGC | 1.02 ± 0.044 |
| CTACTTTGGG | 1.01 ± 0.027 |
| CTAGAAGGGA | 0.9965 ± 0.0049 |
| CTAGAGGGCG | 1.014 ± 0.0084 |
| CTAGATGTAT | 0.985 ± 0.017 |
| CTAGATGTGG | 0.983 ± 0.059 |
| CTAGCACTGT | 1.045 ± 0.0022 |
| CTAGCCGGGG | 1.01 ± 0.031 |
| CTAGGAGATA | 0.9736 ± 0.0014 |
| CTAGGCAACG | 0.982 ± 0.028 |
| CTAGGGCGCT | 0.983 ± 0.032 |
| CTAGGGGATA | 1.02 ± 0.014 |
| CTAGGGGGCA | 0.982 ± 0.037 |
| CTAGGGTAAT | 0.9675 ± 0.0036 |
| CTAGGGTGTG | 0.988 ± 0.034 |
| CTAGGTATCA | 0.965 ± 0.054 |
| CTAGGTGGGT | 1.01 ± 0.027 |
| CTAGGTTCGC | 1.01 ± 0.012 |
| CTAGTCACCG | 0.999 ± 0.019 |
| CTAGTCGTCG | 1.02 ± 0.019 |
| CTAGTGATTG | 0.99358 ± 0.0003 |
| CTAGTGGCTG | 1.02 ± 0.03 |

| Sequence | switch fluorescence ratio |
| --- | --- |
| CTAGTTAAGT | 0.991 ± 0.073 |
| CTAGTTCAGC | 0.99 ± 0.028 |
| CTAGTTTGGT | 1.008 ± 0.0049 |
| CTATAAGGGG | 0.999 ± 0.026 |
| CTATACAGCA | 1.06 ± 0.044 |
| CTATACAGTG | 1.02 ± 0.011 |
| CTATACTGAG | 1.05 ± 0.045 |
| CTATAGAAGG | 1.02 ± 0.025 |
| CTATAGATTT | 0.973 ± 0.02 |
| CTATAGGGGG | 1.007 ± 0.01 |
| CTATAGGTCA | 0.981 ± 0.036 |
| CTATCACCTG | 1.05 ± 0.021 |
| CTATCGATAG | 0.993 ± 0.035 |
| CTATCGGGAC | 1.09 ± 0.026 |
| CTATCGGGAG | 0.9831 ± 0.0025 |
| CTATCTGTTT | 0.9561 ± 0.002 |
| CTATGAAAAG | 1 ± 0.021 |
| CTATGAAGGG | 0.963 ± 0.034 |
| CTATGCGGAA | 1.06 ± 0.038 |
| CTATGCGGTC | 2.39 ± 1.8 |
| CTATGCTGGT | 1.01 ± 0.037 |
| CTATGGTTTT | 1.014 ± 0.003 |
| CTATGTCGGT | 0.974 ± 0.015 |
| CTATTAAGGG | 0.976 ± 0.056 |
| CTATTAATGA | 1.03 ± 0.057 |

| Sequence | switch fluorescence ratio |
| --- | --- |
| CTATTATGTT | 1 ± 0.019 |
| CTATTCAGGT | 1.01 ± 0.032 |
| CTATTCCTGT | 0.995 ± 0.014 |
| CTATTCGGCC | 0.986 ± 0.02 |
| CTATTCGGGG | 0.981 ± 0.01 |
| CTATTGGGAG | 1.03 ± 0.032 |
| CTATTGTTTT | 1.03 ± 0.079 |
| CTATTTCATA | 0.992 ± 0.018 |
| CTATTTCCTT | 0.975 ± 0.031 |
| CTATTTGGCA | 1.0113 ± 4.2e-05 |
| CTATTTTGGC | 0.966 ± 0.038 |
| CTATTTTTTT | 1.01 ± 0.02 |
| CTCAATTCAA | 1.02 ± 0.015 |
| CTCAGCAGGG | 1.73 ± 0.17 |
| CTCAGGGTTT | 1.04 ± 0.023 |
| CTCAGTAATT | 1.38 ± 0.046 |
| CTCAGTAGGC | 1.13 ± 0.066 |
| CTCAGTCGGG | 0.991 ± 0.01 |
| CTCATACCTG | 1.05 ± 0.021 |
| CTCATAGGGG | 1.07 ± 0.024 |
| CTCATGAAAA | 1.02 ± 0.02 |
| CTCATGGGTT | 1.02 ± 0.0011 |
| CTCATGGTTG | 0.9638 ± 0.007 |
| CTCATTGTTG | 0.992 ± 0.014 |
| CTCCCCAGGG | 2.689 ± 0.013 |

| Sequence | switch fluorescence ratio |
| --- | --- |
| CTCCCCCGTC | 1.46 ± 0.37 |
| CTCCCGTCCA | 1.28 ± 0.085 |
| CTCCGGCGCA | 4.19 ± 0.76 |
| CTCCGGCTGG | 1.19 ± 0.14 |
| CTCCGGGCCT | 1.42 ± 0.12 |
| CTCCTAAAGA | 1.05 ± 0.013 |
| CTCCTACACC | 1.25 ± 0.041 |
| CTCGAAGTGG | 0.996 ± 0.021 |
| CTCGAGGGGG | 1.18 ± 0.34 |
| CTCGAGTAGT | 1.04 ± 0.02 |
| CTCGATAAAA | 0.975 ± 0.022 |
| CTCGATGCGT | 1.04 ± 0.013 |
| CTCGATGTGA | 1.05 ± 0.071 |
| CTCGCAGGCT | 1.25 ± 0.037 |
| CTCGCTGGTA | 1.003 ± 0.0081 |
| CTCGGATAAG | 0.9922 ± 0.007 |
| CTCGGATGTC | 0.991 ± 0.022 |
| CTCGGCTGCG | 0.969 ± 0.084 |
| CTCGGCTGTA | 1.08 ± 0.019 |
| CTCGGGAGAA | 1.016 ± 0.0039 |
| CTCGGGGGGT | 1.01 ± 0.014 |
| CTCGGGGTGC | 1.036 ± 0.004 |
| CTCGGGTGCG | 0.973 ± 0.071 |
| CTCGGTGGTG | 0.959 ± 0.024 |
| CTCGTACGAG | 1.02 ± 0.021 |

| Sequence | switch fluorescence ratio |
| --- | --- |
| CTCGTGAACT | 1.048 ± 0.0022 |
| CTCGTTATGT | 0.9782 ± 0.0065 |
| CTCTAAATGT | 1.11 ± 0.016 |
| CTCTAATCGG | 1.018 ± 0.0097 |
| CTCTAATGAA | 0.992 ± 0.037 |
| CTCTAGGGGC | 1.128 ± 0.0065 |
| CTCTAGGGGG | 1.05 ± 0.028 |
| CTCTATGTTA | 1.02 ± 0.076 |
| CTCTCACTGC | 1.32 ± 0.05 |
| CTCTCCTTGT | 1.3 ± 0.38 |
| CTCTGGACTA | 1.11 ± 0.017 |
| CTCTGGGATG | 1.01 ± 0.064 |
| CTCTGGGCTT | 0.99826 ± 8.3e-05 |
| CTCTGGGGGA | 1.05 ± 0.068 |
| CTCTGGTGGC | 1.08 ± 0.054 |
| CTCTGTGCTC | 1.35 ± 0.083 |
| CTCTGTTTAG | 1.48 ± 0.53 |
| CTCTGTTTGC | 1.803 ± 0.0037 |
| CTCTTACGTT | 0.98 ± 0.023 |
| CTCTTAGCTA | 1.17 ± 0.019 |
| CTCTTCTCTT | 0.9657 ± 0.0088 |
| CTCTTGGGGA | 1.02 ± 0.0057 |
| CTGAACGAAT | 1.43 ± 0.034 |
| CTGAACTCGT | 1.03 ± 0.018 |
| CTGAAGCTAG | 2.27 ± 0.0024 |

| Sequence | switch fluorescence ratio |
| --- | --- |
| CTGAAGGATC | 1.05 ± 0.035 |
| CTGAAGGGCG | 0.979 ± 0.044 |
| CTGAATACGG | 1.115 ± 0.01 |
| CTGAATGCGT | 0.9844 ± 0.0084 |
| CTGAATGGGT | 0.998 ± 0.016 |
| CTGACAAGGC | 1.61 ± 0.27 |
| CTGACAGCGG | 1.06 ± 0.033 |
| CTGAGCGATG | 1.063 ± 0.0078 |
| CTGAGGGGCC | 0.951 ± 0.071 |
| CTGAGGGGGA | 1.09 ± 0.17 |
| CTGAGGGGGT | 0.991 ± 0.066 |
| CTGAGTGCTT | 0.991 ± 0.0067 |
| CTGAGTGGC | 0.9639 ± 0.0063 |
| CTGAGTTGTT | 0.989 ± 0.08 |
| CTGATAAAGG | 0.969 ± 0.048 |
| CTGATATAAG | 1.03 ± 0.017 |
| CTGATATTGG | 0.994 ± 0.015 |
| CTGATGGGCT | 0.972 ± 0.029 |
| CTGATGGGG | 0.986 ± 0.021 |
| CTGATGTCGC | 1.074 ± 0.0034 |
| CTGATGTGTC | 0.996 ± 0.055 |
| CTGATTTAGC | 1.05 ± 0.043 |
| CTGCACATGG | 1.7 ± 0.21 |
| CTGCATCCGG | 1.314 ± 0.011 |
| CTGCATGACG | 1.01 ± 0.047 |

| Sequence | switch fluorescence ratio |
| --- | --- |
| CTGCCCGCCC | 1.3 ± 0.12 |
| CTGCGAGGGG | 1 ± 0.016 |
| CTGCGGGATT | 1.02 ± 0.026 |
| CTGCGGGGAG | 1.03 ± 0.037 |
| CTGCTAGTTT | 0.983 ± 0.016 |
| CTGCTGAGCA | 1.03 ± 0.029 |
| CTGCTTCCCG | 1.15 ± 0.041 |
| CTGGAAATTG | 1.03 ± 0.036 |
| CTGGAACGTC | 0.989 ± 0.026 |
| CTGGAAGGGT | 1 ± 0.03 |
| CTGGAATGTT | 1.012 ± 0.01 |
| CTGGACGGTG | 1.032 ± 0.0042 |
| CTGGACTGGT | 0.989 ± 0.012 |
| CTGGAGGGGA | 1.04 ± 0.034 |
| CTGGATAGCG | 0.981 ± 0.044 |
| CTGGCAAGGT | 1.09 ± 0.031 |
| CTGGCATTTT | 0.9936 ± 0.0054 |
| CTGGCGAGCG | 1.03 ± 0.011 |
| CTGGCGGTCC | 1.028 ± 0.0066 |
| CTGGGAATGG | 1.12 ± 0.11 |
| CTGGGAATTG | 1.05 ± 0.043 |
| CTGGGACTGA | 1.02 ± 0.03 |
| CTGGGAGGGG | 1.01 ± 0.029 |
| CTGGGAGGTG | 1.03 ± 0.055 |
| CTGGGAGTAC | 1.04 ± 0.051 |
